Values belong to the binder of their own block, whether it stands above or below them.
Tests used:
HLA-A*0201 (human) [1] = assay: inhibition of 125I-labelled probe peptide binding to purified HLA, gel filtration
HLA-A*6802 (human) [2] = assay: as above
HLA-A*0201 (human) [3] = assay: competition with 125I standard peptide for purified HLA; gel filtration
HLA-A*0203 (human) [4] = assay: inhibition of 125I-labelled probe peptide binding to purified HLA, gel filtration
HLA-A*0206 (human) [5] = assay: as above
HLA-A*0206 (human) [6] = assay: competition with 125I-labelled standard peptide 941.01 for purified HLA-A*0206, gel filtration; details: remark: other sources report otherwise
HLA-A*0201 (human) [7] = assay: competition with 125I-labelled standard peptide on purified HLA, gel filtration
HLA-A*0202 (human) [8] = assay: as above
HLA-A*0203 (human) [9] = assay: as above
HLA-A*6802 (human) [10] = assay: as above
HLA-A*0206 (human) [11] = assay: as above; details: remark: other sources report otherwise
HLA-A*0206 (human) [12] = assay: competition with 125I-labeled probe peptide for purified HLA, gel filtration; details: remark: other sources report otherwise
HLA-A*0201 (human) [13] = assay: competitive inhibition of 125I-labelled standard peptide binding to purified HLA, gel filtration; details: remark: other sources report otherwise
HLA-A*0203 (human) [14] = assay: as above; details: remark: other sources report otherwise
HLA-A*0201 (human) [15] = assay: competitive inhibition of 125I-labelled standard peptide binding to purified HLA; details: remark: other sources report otherwise
HLA-A*0202 (human) [16] = assay: as above; details: remark: other sources report otherwise
HLA-A*0206 (human) [17] = assay: as above; details: remark: other sources report otherwise
HLA-A*0201 (human) [18] = assay: inhibition of 125I-standard peptide binding to purified HLA, gel filtration; details: remark: other sources report otherwise
HLA-A*0202 (human) [19] = assay: as above; details: remark: other sources report otherwise
HLA-A*0203 (human) [20] = assay: as above; details: remark: other sources report otherwise
HLA-A*0206 (human) [21] = assay: as above; details: remark: other sources report otherwise
HLA-A*0202 (human) [22] = assay: inhibition of 125I-labelled probe peptide binding to purified HLA; gel filtration; details: remark: other sources report otherwise
HLA-A*1101 (human) = assay: competition with a radiolabelled standard peptide on purified HLA-A*1101, gel filtration
HLA-A*0202 (human) [23] = assay: competitive inhibition of 125I-labelled standard peptide binding to purified HLA, gel filtration; details: remark: other sources report otherwise
HLA-A*0202 (human) [24] = assay: competition with 125I standard peptide for purified HLA; gel filtration
HLA-A*0203 (human) [25] = assay: as above
HLA-A*0202 (human) [26] = assay: competition with 125I-labeled probe peptide for purified HLA, gel filtration; details: remark: other sources report otherwise
[27] = remark: other sources report otherwise

IC50 (HLA-A*0201 (human) [1]; [27]): 200 nM
IC50 (HLA-A*6802 (human) [2]; [27]): 5000 nM
Binder: LMLLRLSEPA (modifications not checked) [Peptide 63.0014 (HuK2.121; PSA.117) …]

IC50 (HLA-A*0201 (human) [1]; [27]): 104 nM
IC50 (HLA-A*0203 (human) [4]; [27]): 154 nM
IC50 (HLA-A*0206 (human) [5]; [27]): 552 nM
Binder: SVGCTGAVPV (modifications not checked) [Peptide 1418.35 (HuK2.11.V10) …]

binding affinity ratio (IC50 of standard peptide / IC50 of test peptide) (HLA-A*0206 (human) [6]): 0.0002
Binder: RLSEPAKITDV (modifications not checked) [… (Kallikrein, position 125)]

IC50 (HLA-A*0201 (human) [7]; [27]): 385 nM
IC50 (HLA-A*0203 (human) [9]; [27]): 37 nM
IC50 (HLA-A*0206 (human) [11]): 3700 nM
IC50 (HLA-A*6802 (human) [10]; [27]): 6670 nM
Binder: TLMSAMTNLA (modifications not checked) [peptide 20.0312 … (PAP.112)]

IC50 (HLA-A*0206 (human) [12]): 40 nM
Binder: RMMNDQLMFL (modifications not checked) [Peptide 1126.06 … (PSM.662)]

IC50 (HLA-A*0201 (human) [13]): 72 nM
IC50 (HLA-A*0203 (human) [14]): 73 nM
Binder: SLHLLSNDMCA (modifications not checked) [peptide 1419.14 … (HuK2.175)]

IC50 (HLA-A*0203 (human) [14]): 4 nM
Binder: FLRPRSLQCV (modifications not checked) [peptide 1419.07 … (HuK2.165)]

IC50 (HLA-A*0201 (human) [1]): 294 nM
IC50 (HLA-A*0203 (human) [4]): 40 nM
IC50 (HLA-A*0206 (human) [5]): 206 nM
IC50 (HLA-A*6802 (human) [2]): 121 nM
Binder: ITLSVGCTGAV (modifications not checked) [Peptide 1418.59 (HuK2.8.T2) …]

binding affinity ratio (IC50 standard peptide / IC50 test peptide) (ratio to standard peptide) (HLA-A*0201 (human) [18]): 0.003
binding affinity ratio (IC50 standard peptide / IC50 test peptide) (ratio to standard peptide) (HLA-A*0206 (human) [21]): 0.001
Binder: LLRLSEPAKI (modifications not checked) [Kallikrein 123 …]

binding affinity ratio (IC50 of standard peptide / IC50 of test peptide) (HLA-A*1101 (human)): 0.0002
Binder: YGKVFRGNK (modifications not checked) [PSM peptide … (position 205, 9 amino acids)]

IC50 (HLA-A*0203 (human) [9]; [27]): 3.8 nM
IC50 (HLA-A*6802 (human) [10]; [27]): 6670 nM
Binder: SLLAKELKFV (modifications not checked) [peptide 63.0033 … (PAP.29.L2)]

IC50 (HLA-A*0202 (human) [26]): 0.7 nM
Binder: ALFDIESKV (modifications not checked) [Peptide 1129.08 … (PSM.711)]

More lines, now with the values behind:

Binder: LLALFPPEGV (modifications not checked) [Peptide 1419.58 … (PAP.120.L2)]
IC50 (HLA-A*0201 (human) [3]): 5 nM

Binder: FLLFFWLDRSV (modifications not checked) [peptide 63.0138 … (PAP.20)]
IC50 (HLA-A*0201 (human) [7]): 14 nM
IC50 (HLA-A*0202 (human) [8]): 17 nM
IC50 (HLA-A*0203 (human) [9]): 2.8 nM
IC50 (HLA-A*6802 (human) [10]): 364 nM

Binder: SLQCVSLHV (modifications not checked) [Peptide 1418.19 (HuK2.170.V9) …]
IC50 (HLA-A*0201 (human) [1]; [27]): 56 nM
IC50 (HLA-A*0203 (human) [4]; [27]): 48 nM
IC50 (HLA-A*0206 (human) [5]; [27]): 4110 nM

Binder: KVTKFMLCV (modifications not checked) [Peptide 60.0220, … (PSA.187.V9)]
IC50 (HLA-A*0201 (human) [15]): 69 nM
IC50 (HLA-A*0202 (human) [16]): 518 nM
IC50 (HLA-A*0206 (human) [17]): 128 nM

Binder: LTLSVTWIGAA (modifications not checked) [PSA 4 …]
binding affinity ratio (IC50 standard peptide / IC50 test peptide) (ratio to standard peptide) (HLA-A*0201 (human) [18]): 0.0008
binding affinity ratio (IC50 standard peptide / IC50 test peptide) (ratio to standard peptide) (HLA-A*0202 (human) [19]): 0.0014
binding affinity ratio (IC50 standard peptide / IC50 test peptide) (ratio to standard peptide) (HLA-A*0203 (human) [20]): 0.037
binding affinity ratio (IC50 standard peptide / IC50 test peptide) (ratio to standard peptide) (HLA-A*0206 (human) [21]): 0.0025

Binder: ALFPPEGVSV (modifications not checked) [peptide 1419.61 (PAP.122.V10)]
IC50 (HLA-A*0202 (human) [22]): 1 nM

Binder: KITDVVKVL (modifications not checked) [… (Kallikrein, position 131)]
binding affinity ratio (ratio to standard peptide) (HLA-A*0202 (human) [23]): 0.05

Binder: KVTEFMLCAGV (modifications not checked) [Peptide 1418.71 … (HuK2.191.V11)]
IC50 (HLA-A*0201 (human) [3]): 56 nM
IC50 (HLA-A*0202 (human) [24]): 10 nM
IC50 (HLA-A*0203 (human) [25]): 26 nM
